Residue numbers refer to the chain shown, from its start. Values belong to the binder of their own block, whether it stands above or below them.
What was measured:
[1] = biological target: T1, HER-3 (UniProt P21860 20-643, limits assumed); experiment: SPR, HER-3 immobilised on the chip, antibody flowed; concentration not given [panel P1F1]
From the text: (§1) In order to assess the specificity of the binding, molecules closely related to HER-2 were also used as bound antigens, namely EGFR and HER-3.

[2] = biological target: T2, human HER-2 protein (soluble / recombinant, used in SPR) (human, UniProt P04626 23-652); experiment: SPR
T2 construct: also called immobilized HER2 protein; recombinant HER-2

[3] = biological target: T3, EGFR (UniProt P00533 25-645, limits assumed); experiment: SPR, EGFR immobilised on the chip, antibody flowed; concentration not given [panel P1F1]
T3 construct: also called HER1
From the text: as §1

[4] = biological target: T2, human HER-2 protein (soluble / …); experiment: SPR, immobilized HER2 protein
[5] = biological target: T2, human HER-2 protein (soluble / …); experiment: SPR, human HER2 immobilised, Fab flown, 1:1 Langmuir model
Procedure: Rate constants of association, dissociation (kₐ, kd) and the equilibrium dissociation constants (KD) were determined for anti-HER2 Fab molecules. Human HER2 protein (50 μg/mL) was immobilised on the SPR sensor chip and was exposed to five different concentrations of each Fab in 2- or 3-fold dilutions over the flow cells. 1:1 Langmuir model was used to derive the constants.

[6] = biological target: T3, EGFR; experiment: SPR, EGFR immobilised on the chip, antibody flowed; concentration not given [panel P1A3]
From the text: as §1

[7] = biological target: T1, HER-3; experiment: SPR, HER-3 immobilised on the chip, antibody flowed; concentration not given [panel P1A3]
From the text: as §1

[8] = biological target: T1, HER-3; experiment: SPR, HER-3 immobilised on the chip, antibody flowed; concentration not given [panel P1E4]
From the text: as §1

[9] = biological target: T3, EGFR; experiment: SPR, EGFR immobilised on the chip, antibody flowed; concentration not given [panel P1E4]
From the text: as §1

[10] = biological target: T3, EGFR; experiment: SPR, EGFR immobilised on the chip, antibody flowed; concentration not given [panel P1C5]
From the text: as §1

[11] = biological target: T1, HER-3; experiment: SPR, HER-3 immobilised on the chip, antibody flowed; concentration not given [panel P1C5]
From the text: as §1

T1 sequence (P21860 20-643 limits assumed): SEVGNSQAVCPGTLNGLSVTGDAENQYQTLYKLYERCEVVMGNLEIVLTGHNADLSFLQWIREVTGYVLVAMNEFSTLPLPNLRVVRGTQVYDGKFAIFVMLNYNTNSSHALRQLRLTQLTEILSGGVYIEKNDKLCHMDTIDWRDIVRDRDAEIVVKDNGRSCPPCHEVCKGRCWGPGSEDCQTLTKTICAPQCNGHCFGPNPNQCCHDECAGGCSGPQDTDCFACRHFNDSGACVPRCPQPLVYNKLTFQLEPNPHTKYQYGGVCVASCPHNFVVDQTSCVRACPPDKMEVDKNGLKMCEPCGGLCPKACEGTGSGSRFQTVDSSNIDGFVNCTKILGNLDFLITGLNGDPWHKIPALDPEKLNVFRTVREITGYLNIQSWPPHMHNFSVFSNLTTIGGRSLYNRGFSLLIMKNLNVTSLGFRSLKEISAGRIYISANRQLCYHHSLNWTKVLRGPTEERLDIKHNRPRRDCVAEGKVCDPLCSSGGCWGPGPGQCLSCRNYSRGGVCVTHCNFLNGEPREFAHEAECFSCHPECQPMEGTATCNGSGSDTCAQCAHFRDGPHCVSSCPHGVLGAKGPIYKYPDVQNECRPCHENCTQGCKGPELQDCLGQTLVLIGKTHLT

binding result [1]: no binding
Kd [2]: 11.6 nM
binding result [3]: no binding
B1: P1F1 antibody (antibody, V domains shown)
VH: QVQLVESGPGLVKPSGTLSLTCAVSGGSISSSNWWSWVRQPPGKGLEWIGEIYHSGSTNYNPSLKSRVTISVDTSKNQFSLKLSSVTAADTAVYYCARMGANSGGYLYGMDVWGQGTTVTVSS
VL: QTVVTQEPSFSVSPGGTVTLTCGLSSGSVSTSYYPSWYQQTPGQAPRTLIYSTNTRSSGVPDRFSGSILGNKAALTITGAQADDESDYYCVLYMGSGIWVFGGGTKLTVLG

koff [4]: 0.0158 s⁻¹
Kd [5]: 183 nM
koff [5]: 0.019 s⁻¹
kon [5]: 108000 M⁻¹ s⁻¹
B2: PFG3 Fab (Fab, V domains shown)
VH: EVQLVQSGAEVKKPGTSVTVSCRASGFTFSDYYIHWVRQAPGQGLEWMGWVSAYNGDTNYAQKFQGRVTVTTDTSTSTAYMELRSLRSDDTAVYFCAREIASYSGSYYDYWGQGTLVTVSS
VL: B1 VL with T2A, T5L, S25T, S28A, T31S, S52N, N54D, T55I, S57F, W99S
notes: Printed entries run through CL and CH1 (Fab chains); Label G3 tied to PFG3 by inference

binding result [6]: no binding
Kd [2]: 21.4 nM
binding result [7]: no binding
B3: P1A3 antibody (antibody, V domains shown)
VH: EVQLVQSGTEVKKPGASVRVSCKSSGYTFTSYYIHWVRQAPGQGLEWMAIINPGNGDTNYAQRFQGRVTMTRDTSTSTVYMELRSLRSDDTAVYFCAREIASYSGSYYDYWGQGTLVTVSS
VL: B1 VL with T2A, F10L, S32G, Y33H, P35A, I50F, S52N, L69V, M94V, S96D

Kd [2]: 5.3 nM
binding result [8]: no binding
binding result [9]: no binding
B4: P1E4 antibody (antibody, V domains shown)
VH: QVQLQQWGAGLLKPSETLSLTCAVYGGSFSGYYWSWIRQPPGKGLEWIGEINHSGSTNYNPSLKSRVTISVDTSKNQFSLKLSSVTTADTAVYYCARMGINSGGYLYGMDVWGQGTTVTVSS
VL: B1 VL with T41I, S52T, T55I, S65G, D83E, V91M

binding result [10]: no binding
Kd [2]: 12.7 nM
binding result [11]: no binding
B5: P1C5 antibody (antibody, V domains shown)
VH: QVQLQESGPGLVKPSETLSLTCTVSGGSISSSSYYWGWIRQPPGKGLEWIGSIYYSGSTYYNPSLKSRVTISVDTSKNQFSLKLSSVTAADTAVYYCARYAPDSSGYLVAFDIWGQGTMVTVSS
VL: B1 VL with S32G, T55S, W99S

koff [4]: 0.0141 s⁻¹
Kd [5]: 305 nM
koff [5]: 0.014 s⁻¹
kon [5]: 44500 M⁻¹ s⁻¹
B6: PFF5 Fab (Fab, V domains shown)
VH: B5 VH with K83R, T88S
VL: B1 VL with T2A, T5I, S32T, S96N, W99S

koff [4]: 0.013 s⁻¹
Kd [5]: 16.5 nM
koff [5]: 0.026 s⁻¹
kon [5]: 1.59e+06 M⁻¹ s⁻¹
B7: PFE1 Fab (Fab, V domains shown)
VH: EVQLVQSGGGVVQPGRSLRLSCAASGFTFSSYAMHWVRQAPGKGLEWVAVISYDGSNKYYADSVKGRFTISRDNSKNTLYLQMNSLRAEDTAVYYCARSRGYYGMDVWGQGTTVTVSS
VL: DVVMTQSPLSLPVTLGQPASISCTSSQSLVYSDGNTYLNWFQQRPGQSPRRLIYKVSKRDSGVPDRFSGSGSGTDFTLKISRVEAEDVAIYYCMQGTHWPLTFGGGTKVEIKR
notes: Printed entries run through CL and CH1 (Fab chains); Label E1 tied to PFE1 by inference

koff [4]: 0.0322 s⁻¹
Kd [5]: 17.6 nM
koff [5]: 0.078 s⁻¹
kon [5]: 4.41e+06 M⁻¹ s⁻¹
B8: PFB4 Fab (Fab, V domains shown)
VH: B7 VH with A33G, N74D, R98K, S99D
VL: QAVVIQEPSLTVSPGGTVTLTCGSTTGAVTSGHYPSWFQQKPGQAPRALIYSTSNKHSWTPARFSGSLLGGKAALTLSGVQPEDEAEYYCLLYYGGARVFGGGTKLTVLG
notes: Printed entries run through CL and CH1 (Fab chains); Label B4 tied to PFB4 by inference
